Test results taken from patent US20220387487A1, “COMPOSITIONS AND METHODS FOR TREATMENT OF CANCER” (Aleta Biotherapeutics Inc., priority 2019, published 2022).

B1: W62D/F64V/F66M: CD19 variant (protein)
chain: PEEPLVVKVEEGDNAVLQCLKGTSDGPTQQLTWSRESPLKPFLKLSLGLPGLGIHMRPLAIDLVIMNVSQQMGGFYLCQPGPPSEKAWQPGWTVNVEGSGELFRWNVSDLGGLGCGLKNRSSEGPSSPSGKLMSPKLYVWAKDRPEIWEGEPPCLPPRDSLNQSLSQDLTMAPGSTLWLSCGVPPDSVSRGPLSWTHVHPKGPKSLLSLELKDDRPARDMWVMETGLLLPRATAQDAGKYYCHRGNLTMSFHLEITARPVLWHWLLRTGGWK
B2: W62E/F64R/F66R: CD19 variant (protein)
chain: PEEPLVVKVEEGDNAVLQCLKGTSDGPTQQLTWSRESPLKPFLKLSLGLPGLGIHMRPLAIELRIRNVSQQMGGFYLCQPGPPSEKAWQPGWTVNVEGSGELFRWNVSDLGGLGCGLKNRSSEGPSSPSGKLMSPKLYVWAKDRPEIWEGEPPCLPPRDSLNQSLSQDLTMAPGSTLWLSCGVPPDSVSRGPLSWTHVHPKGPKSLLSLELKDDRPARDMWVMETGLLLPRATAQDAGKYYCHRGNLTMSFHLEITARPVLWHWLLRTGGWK
B3: W62S/F64V/F66A: CD19 variant (protein)
chain: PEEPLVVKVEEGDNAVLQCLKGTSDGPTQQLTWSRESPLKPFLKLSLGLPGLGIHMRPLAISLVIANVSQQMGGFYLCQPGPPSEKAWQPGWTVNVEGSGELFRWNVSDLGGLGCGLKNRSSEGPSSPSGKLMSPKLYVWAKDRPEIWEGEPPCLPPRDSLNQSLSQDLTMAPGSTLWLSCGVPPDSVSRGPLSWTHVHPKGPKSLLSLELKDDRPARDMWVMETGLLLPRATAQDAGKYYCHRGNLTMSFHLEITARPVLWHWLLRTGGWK
B4: E224G/G226V/L228V: CD19 variant (protein)
chain: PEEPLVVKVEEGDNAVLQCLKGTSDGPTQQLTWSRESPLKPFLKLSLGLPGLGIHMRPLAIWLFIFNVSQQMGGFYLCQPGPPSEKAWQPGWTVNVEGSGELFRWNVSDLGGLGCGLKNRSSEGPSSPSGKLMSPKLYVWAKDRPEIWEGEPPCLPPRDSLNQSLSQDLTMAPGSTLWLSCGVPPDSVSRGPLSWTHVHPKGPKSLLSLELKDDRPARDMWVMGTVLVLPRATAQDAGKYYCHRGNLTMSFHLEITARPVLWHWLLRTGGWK
B5: E224E/G226E/L228V: CD19 variant (protein)
chain: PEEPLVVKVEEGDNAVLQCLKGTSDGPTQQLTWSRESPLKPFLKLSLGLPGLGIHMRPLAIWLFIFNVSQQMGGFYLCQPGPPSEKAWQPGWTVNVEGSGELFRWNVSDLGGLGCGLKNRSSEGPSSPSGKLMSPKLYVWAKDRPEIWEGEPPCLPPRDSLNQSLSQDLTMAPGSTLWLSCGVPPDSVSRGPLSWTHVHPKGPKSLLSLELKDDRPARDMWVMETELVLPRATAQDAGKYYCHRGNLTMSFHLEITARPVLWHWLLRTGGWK
B6: W62D/F64V/F66R: CD19 variant (protein)
chain: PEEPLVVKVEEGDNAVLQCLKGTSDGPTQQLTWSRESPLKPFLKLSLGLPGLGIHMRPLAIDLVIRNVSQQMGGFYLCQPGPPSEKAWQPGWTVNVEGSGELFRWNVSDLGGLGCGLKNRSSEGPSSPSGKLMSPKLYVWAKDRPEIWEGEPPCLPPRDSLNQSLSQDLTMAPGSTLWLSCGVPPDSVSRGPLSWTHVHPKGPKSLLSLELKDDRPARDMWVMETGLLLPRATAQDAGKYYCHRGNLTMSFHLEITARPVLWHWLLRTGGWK
B7: W62H/F64F/F66R: CD19 variant (protein)
chain: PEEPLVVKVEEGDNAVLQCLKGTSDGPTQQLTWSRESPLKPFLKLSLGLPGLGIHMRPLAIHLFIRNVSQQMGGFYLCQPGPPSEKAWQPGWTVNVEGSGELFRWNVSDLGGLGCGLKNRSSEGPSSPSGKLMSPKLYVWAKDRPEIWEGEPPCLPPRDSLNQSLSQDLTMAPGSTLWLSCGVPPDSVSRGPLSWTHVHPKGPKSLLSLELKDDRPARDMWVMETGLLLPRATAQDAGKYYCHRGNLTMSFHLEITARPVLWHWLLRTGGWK
B8: W62T/F64V/F66R: CD19 variant (protein)
chain: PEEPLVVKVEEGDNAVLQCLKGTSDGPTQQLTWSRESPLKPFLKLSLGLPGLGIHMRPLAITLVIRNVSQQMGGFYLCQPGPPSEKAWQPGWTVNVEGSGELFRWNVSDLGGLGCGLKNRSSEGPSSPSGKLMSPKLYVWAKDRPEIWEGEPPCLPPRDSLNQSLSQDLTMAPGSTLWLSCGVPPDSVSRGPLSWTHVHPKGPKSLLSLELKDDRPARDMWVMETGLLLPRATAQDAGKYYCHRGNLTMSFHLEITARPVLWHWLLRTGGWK
B9: E224G/G226A/L228T: CD19 variant (protein)
chain: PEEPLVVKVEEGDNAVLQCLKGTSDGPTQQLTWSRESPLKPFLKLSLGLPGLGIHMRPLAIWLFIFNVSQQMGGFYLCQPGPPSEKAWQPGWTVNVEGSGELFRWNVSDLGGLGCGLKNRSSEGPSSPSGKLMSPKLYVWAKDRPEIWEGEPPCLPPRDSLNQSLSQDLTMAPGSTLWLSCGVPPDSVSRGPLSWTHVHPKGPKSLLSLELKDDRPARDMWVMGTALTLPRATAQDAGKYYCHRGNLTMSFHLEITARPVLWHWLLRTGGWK
B10: W62W/F64V/F66A: CD19 variant (protein)
chain: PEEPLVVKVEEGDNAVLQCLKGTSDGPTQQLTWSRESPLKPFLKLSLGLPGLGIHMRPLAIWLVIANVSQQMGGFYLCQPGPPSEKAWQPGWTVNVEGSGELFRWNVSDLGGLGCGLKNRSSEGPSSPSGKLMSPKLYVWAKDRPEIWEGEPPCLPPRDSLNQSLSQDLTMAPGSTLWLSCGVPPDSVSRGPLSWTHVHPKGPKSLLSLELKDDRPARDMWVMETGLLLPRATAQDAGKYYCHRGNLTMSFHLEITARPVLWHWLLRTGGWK
B11: W62R/F64A/F66F: CD19 variant (protein)
chain: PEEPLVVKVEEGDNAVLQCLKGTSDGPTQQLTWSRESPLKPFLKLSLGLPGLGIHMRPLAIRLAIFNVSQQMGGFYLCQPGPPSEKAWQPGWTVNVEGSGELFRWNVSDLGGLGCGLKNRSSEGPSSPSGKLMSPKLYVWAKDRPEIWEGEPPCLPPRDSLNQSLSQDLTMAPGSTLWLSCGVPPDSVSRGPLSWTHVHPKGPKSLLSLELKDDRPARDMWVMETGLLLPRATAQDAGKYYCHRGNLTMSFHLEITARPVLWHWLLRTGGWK
B12: E224D/G226V/L228V: CD19 variant (protein)
chain: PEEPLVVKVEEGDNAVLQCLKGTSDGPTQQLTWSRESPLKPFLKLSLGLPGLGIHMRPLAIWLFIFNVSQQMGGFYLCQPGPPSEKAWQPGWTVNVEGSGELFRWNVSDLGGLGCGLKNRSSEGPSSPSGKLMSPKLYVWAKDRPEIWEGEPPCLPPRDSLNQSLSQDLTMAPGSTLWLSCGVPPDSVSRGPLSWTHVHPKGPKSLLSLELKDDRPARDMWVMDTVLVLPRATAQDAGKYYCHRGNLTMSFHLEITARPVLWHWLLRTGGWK
B13: E224G/G226R/L228V: CD19 variant (protein)
chain: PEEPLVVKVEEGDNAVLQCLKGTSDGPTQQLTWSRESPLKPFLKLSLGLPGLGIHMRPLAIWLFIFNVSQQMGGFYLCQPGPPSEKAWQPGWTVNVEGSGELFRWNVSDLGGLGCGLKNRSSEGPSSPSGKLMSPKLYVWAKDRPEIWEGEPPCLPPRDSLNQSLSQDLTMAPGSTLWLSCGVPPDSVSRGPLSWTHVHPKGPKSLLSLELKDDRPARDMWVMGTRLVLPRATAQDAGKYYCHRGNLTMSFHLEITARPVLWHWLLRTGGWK
B14: W62T/F64A/F66S: CD19 variant (protein)
chain: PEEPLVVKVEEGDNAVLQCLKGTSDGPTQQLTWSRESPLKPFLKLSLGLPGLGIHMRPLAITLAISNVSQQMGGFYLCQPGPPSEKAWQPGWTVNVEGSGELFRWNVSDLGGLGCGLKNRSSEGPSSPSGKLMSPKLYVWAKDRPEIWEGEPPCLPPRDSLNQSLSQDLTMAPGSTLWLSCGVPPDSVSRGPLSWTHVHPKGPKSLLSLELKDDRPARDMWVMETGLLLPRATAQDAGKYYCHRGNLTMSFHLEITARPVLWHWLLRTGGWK
B15: W62T/F64V/F66F: CD19 variant (protein)
chain: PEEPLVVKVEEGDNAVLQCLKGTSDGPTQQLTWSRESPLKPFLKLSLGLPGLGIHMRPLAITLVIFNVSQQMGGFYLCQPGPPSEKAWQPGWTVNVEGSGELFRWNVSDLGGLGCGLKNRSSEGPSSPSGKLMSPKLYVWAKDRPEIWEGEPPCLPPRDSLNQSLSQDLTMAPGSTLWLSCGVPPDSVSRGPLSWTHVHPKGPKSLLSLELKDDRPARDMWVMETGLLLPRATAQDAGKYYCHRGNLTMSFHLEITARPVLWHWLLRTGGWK
B16: W62E/F64C/F66S: CD19 variant (protein)
chain: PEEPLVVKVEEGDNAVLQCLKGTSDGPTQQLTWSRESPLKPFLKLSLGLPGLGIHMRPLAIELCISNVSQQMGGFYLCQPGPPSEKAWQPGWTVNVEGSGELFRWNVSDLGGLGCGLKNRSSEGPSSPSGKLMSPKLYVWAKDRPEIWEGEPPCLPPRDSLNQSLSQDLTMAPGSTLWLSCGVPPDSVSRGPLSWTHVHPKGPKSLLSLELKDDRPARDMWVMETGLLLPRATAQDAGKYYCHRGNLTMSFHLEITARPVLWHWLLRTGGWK
B17: E224G/G226S/L228M: CD19 variant (protein)
chain: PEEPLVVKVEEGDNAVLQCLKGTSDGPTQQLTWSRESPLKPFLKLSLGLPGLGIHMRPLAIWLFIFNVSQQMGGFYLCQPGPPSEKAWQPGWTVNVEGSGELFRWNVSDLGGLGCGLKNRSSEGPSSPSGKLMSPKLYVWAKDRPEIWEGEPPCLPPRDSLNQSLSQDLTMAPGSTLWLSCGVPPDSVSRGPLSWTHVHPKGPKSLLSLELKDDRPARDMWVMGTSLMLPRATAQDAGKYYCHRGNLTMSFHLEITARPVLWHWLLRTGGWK

Tested on: FMC63
Test: CD19 variant binding to anti-CD19 antibody FMC63 (score)
Settings: Table 1B, CD19 triple mutants

Sequence of FMC63 (as listed by the source): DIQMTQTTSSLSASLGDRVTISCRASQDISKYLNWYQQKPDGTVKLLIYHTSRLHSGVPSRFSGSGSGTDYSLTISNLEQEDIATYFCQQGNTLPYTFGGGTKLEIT
Sequence of FMC63 (as listed by the source): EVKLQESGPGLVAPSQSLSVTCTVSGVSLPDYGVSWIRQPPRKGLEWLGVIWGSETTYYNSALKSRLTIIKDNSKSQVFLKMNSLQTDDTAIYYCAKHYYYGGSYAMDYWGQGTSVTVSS

| Molecule | FMC63 Binding Score |
| --- | --- |
| B1 | 16. ± 5.6 |
| B2 | 12.4 ± 2.1 |
| B3 | 13.5 ± 3.2 |
| B4 | 11.2 ± 1. |
| B5 | 11.6 ± 1.2 |
| B6 | 12.6 ± 2.3 |
| B7 | 12.4 ± 2.3 |
| B8 | 12.2 ± 2.1 |
| B9 | 12.7 ± 2.4 |
| B10 | 13.7 ± 3.2 |
| B11 | 15.9 ± 5.6 |
| B12 | 13.8 ± 3.4 |
| B13 | 11. ± .9 |
| B14 | 15.7 ± 5.6 |
| B15 | 13.6 ± 3.2 |
| B16 | 12.6 ± 2.3 |
| B17 | 13.8 ± 3.4 |
